Experiment [1] has as its target C3b (UniProt P01024). As to the kind of experiment: cell-based or functional assay.
Experiment [2] has as its target C3b (UniProt P01024). The experiment in a line: ELISA on plates coated with C3b (5 ug/mL), detection with mouse anti-human CFH antibody and HRP goat anti-mouse, OD450. For orientation: ELISA stands for enzyme-linked immunosorbent assay.

Chain of hSCR (1-7)-mFc fusion protein (chain): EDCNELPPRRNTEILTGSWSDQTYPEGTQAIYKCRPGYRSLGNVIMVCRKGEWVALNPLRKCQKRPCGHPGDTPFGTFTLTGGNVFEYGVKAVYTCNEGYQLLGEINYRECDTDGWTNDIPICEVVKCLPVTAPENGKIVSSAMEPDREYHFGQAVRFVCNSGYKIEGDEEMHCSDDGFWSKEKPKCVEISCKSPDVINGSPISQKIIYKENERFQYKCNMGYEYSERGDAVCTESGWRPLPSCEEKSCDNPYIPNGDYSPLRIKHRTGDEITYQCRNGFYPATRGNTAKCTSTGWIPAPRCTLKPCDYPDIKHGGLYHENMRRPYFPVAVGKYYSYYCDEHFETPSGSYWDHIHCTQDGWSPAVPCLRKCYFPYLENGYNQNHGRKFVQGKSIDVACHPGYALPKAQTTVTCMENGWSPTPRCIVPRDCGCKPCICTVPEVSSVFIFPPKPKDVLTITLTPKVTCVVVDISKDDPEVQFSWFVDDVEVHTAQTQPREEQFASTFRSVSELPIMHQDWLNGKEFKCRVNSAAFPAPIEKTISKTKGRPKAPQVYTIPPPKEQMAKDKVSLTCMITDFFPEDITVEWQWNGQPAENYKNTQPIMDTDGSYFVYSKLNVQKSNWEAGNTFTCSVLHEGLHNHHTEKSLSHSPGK
Chain of hSCR (1-7)-hSCR (18-20)-hFc fusion protein (P08603 other isoform, or with tags, fused parts or gaps limits assumed): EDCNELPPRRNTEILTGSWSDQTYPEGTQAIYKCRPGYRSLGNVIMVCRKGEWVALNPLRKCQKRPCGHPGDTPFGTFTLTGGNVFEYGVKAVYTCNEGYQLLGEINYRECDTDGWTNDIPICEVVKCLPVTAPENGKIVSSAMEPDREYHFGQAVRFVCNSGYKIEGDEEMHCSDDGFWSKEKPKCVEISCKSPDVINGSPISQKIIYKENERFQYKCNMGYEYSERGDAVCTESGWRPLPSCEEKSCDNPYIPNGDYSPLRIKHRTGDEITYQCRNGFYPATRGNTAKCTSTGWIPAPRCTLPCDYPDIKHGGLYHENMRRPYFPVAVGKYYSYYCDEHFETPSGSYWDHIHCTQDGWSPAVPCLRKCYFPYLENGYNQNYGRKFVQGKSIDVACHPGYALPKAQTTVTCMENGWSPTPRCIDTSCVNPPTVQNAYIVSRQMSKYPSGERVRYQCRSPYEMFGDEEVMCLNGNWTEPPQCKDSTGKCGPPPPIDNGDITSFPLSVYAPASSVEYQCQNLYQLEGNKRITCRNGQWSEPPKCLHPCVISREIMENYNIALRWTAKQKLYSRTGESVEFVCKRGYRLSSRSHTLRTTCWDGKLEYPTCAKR
Chain of human CFH (complement Factor H) (P08603 19-1231 limits assumed): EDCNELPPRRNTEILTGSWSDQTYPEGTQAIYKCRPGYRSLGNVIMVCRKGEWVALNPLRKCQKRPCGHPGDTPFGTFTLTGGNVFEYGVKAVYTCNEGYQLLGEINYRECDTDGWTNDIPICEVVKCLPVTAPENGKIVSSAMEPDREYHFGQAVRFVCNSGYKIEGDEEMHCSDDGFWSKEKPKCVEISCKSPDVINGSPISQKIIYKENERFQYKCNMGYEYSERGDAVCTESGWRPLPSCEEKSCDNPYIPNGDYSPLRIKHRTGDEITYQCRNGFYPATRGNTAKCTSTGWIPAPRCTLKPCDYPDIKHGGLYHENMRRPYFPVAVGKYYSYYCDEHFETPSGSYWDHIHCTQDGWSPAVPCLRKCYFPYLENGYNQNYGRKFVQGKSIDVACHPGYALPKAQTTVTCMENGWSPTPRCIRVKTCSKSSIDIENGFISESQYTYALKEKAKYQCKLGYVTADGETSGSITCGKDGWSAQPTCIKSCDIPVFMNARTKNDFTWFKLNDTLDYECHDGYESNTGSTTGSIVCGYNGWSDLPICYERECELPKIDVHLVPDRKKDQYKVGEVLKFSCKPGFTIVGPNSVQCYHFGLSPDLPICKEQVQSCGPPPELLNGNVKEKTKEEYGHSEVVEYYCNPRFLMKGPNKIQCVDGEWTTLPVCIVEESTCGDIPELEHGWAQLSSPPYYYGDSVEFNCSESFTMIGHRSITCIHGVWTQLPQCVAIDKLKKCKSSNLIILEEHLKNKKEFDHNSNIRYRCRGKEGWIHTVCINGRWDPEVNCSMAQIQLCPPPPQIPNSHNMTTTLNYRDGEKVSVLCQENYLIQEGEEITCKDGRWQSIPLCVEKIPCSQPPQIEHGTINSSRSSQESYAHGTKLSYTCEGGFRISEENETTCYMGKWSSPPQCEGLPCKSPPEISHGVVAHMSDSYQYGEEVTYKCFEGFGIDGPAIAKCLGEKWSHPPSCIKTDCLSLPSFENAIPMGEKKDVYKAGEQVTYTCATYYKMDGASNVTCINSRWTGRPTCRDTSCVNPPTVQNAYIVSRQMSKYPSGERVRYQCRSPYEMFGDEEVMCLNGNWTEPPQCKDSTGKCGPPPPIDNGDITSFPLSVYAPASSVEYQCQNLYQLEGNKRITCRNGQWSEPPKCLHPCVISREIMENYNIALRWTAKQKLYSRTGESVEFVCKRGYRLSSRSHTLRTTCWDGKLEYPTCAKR

In turn, “human CFH (complement Factor H) (from UniProt P08603 19-1231)” gave an IC50, inhibition of rabbit red blood cell hemolysis mediated by the alternative complement pathway in experiment [1] of 370 nM.

In general, EC50 (read off the curve) refers to the concentration at which the effect is half-maximal. Consider hSCR (1-7)-hFc fusion protein, for which the EC50 (read off the curve) in experiment [2] stood at 30 nM. In experiment [1], this substance registered an IC50, inhibition of rabbit red blood cell hemolysis mediated by the alternative complement pathway of 74 nM and a hemolysis inhibiting activity relative to human CFH of 5 times.

Take hSCR (1-7)-mFc fusion protein: the EC50 (read off the curve) in experiment [2] came to 30 nM. In experiment [1], this substance had an IC50, inhibition of rabbit red blood cell hemolysis mediated by the alternative complement pathway of 86 nM.

For “hSCR (1-7)-hSCR (18-20)-hFc fusion protein (from UniProt P08603 19-1231)”, the IC50, inhibition of rabbit red blood cell hemolysis mediated by the alternative complement pathway in experiment [1] worked out at 330 nM.

Values taken from patent publication US20190071477A1.
